B1: LINE1-mini (parent)
chain: GGCAGAGCUCAACACAGCGUGGCAAAGUGGCUGUGGCUAGACUGCC

Variants of: B1
Test: self-cleavage, relative activity (ratio to wild type); higher = more cleavage; in vitro, sequencing; the parent is a self-cleaving ribozyme

Row | Variant | self-cleavage
1 | C42G C46A | 0.04
2 | C42G C46G | 0.04
3 | C42G C46U | 0.09
4 | G40U U43C | 0.15
5 | G40U U43A | 0.08
6 | G40U U43G | 0.47
7 | C45A | 0.64
8 | C45G | 0.39
9 | C45U | 1.43
10 | A41C G44A | 0.05
11 | A41C G44U | 0.11
12 | A41C G44C | 0.08
13 | G40U G44U | 0.12
14 | G40U G44C | 0.16
15 | G40U G44A | 0.14
16 | A41U U43G | 0.17
17 | A41U U43C | 0.09
18 | A41U U43A | 0.17
19 | C42A G44A | 0.25
20 | C42A G44C | 0.12
21 | C42A G44U | 0.11
22 | G44A C45A | 0.07
23 | G44A C45G | 0.2

Row | Variant | self-cleavage
24 | G44A C45U | 0.1
25 | U43A C46A | 0.1
26 | U43A C46U | 0.13
27 | U43A C46G | 0.14
28 | C45U C46G | 0.39
29 | C45U C46A | 0.63
30 | C45U C46U | 1.03
31 | G44C C46U | 0.14
32 | G44C C46A | 0.1
33 | G44C C46G | 0.08
34 | A41G C42U | 0.11
35 | A41G C42G | 0.06
36 | A41G C42A | 0.12
37 | A41G G44C | 0.05
38 | A41G G44U | 0.06
39 | A41G G44A | 0.08
40 | G44C C45G | 0.21
41 | G44C C45A | 0.05
42 | G44C C45U | 0.06
43 | A41U C42A | 0.09
44 | A41U C42G | 0.07
45 | A41U C42U | 0.09
46 | C42G U43G | 0.06

Row | Variant | self-cleavage
47 | C42G U43C | 0.03
48 | C42G U43A | 0.06
49 | G44U | 0.32
50 | G44C | 0.36
51 | G44A | 0.44
52 | A41G U43A | 0.05
53 | A41G U43G | 0.05
54 | A41G U43C | 0.04
55 | A41C U43C | 0.08
56 | A41C U43A | 0.11
57 | A41C U43G | 0.06
58 | A41G C45A | 0.09
59 | A41G C45G | 0.05
60 | A41G C45U | 0.49
61 | C42A C46U | 0.19
62 | C42A C46G | 0.07
63 | C42A C46A | 0.2
64 | C45A C46A | 0.24
65 | C45A C46G | 0.36
66 | C45A C46U | 0.4
67 | G40U C46U | 0.11
68 | G40U C46G | 0.06
69 | C42U G44A | 0.16

Row | Variant | self-cleavage
70 | C42U G44U | 0.1
71 | C42U G44C | 0.13
72 | C42A | 0.17
73 | C42G | 0.07
74 | C42U | 0.35
75 | C46G | 0.99
76 | C46U | 1.03
77 | C46A | 0.9
78 | C42U U43A | 0.12
79 | C42U U43C | 0.11
80 | C42U U43G | 0.15
81 | A41C C45G | 0.1
82 | A41C C45A | 0.11
83 | A41C C45U | 0.1
84 | G44A C46U | 0.16
85 | G44A C46G | 0.12
86 | G44A C46A | 0.08
87 | U43C C45A | 0.08
88 | U43C C45G | 0.1
89 | U43C C45U | 0.13
90 | C42G C45U | 0.05
91 | C42G C45A | 0.04
92 | C42G C45G | 0.09

Row | Variant | self-cleavage
93 | U43G C45G | 0.09
94 | U43G C45U | 0.19
95 | U43G C45A | 0.32
96 | C42A C45A | 0.09
97 | C42A C45U | 0.13
98 | C42A C45G | 0.21
99 | C45G C46G | 0.53
100 | C45G C46A | 0.21
101 | C45G C46U | 0.66
102 | C42A U43C | 0.09
103 | C42A U43A | 0.15
104 | C42A U43G | 0.07
105 | A41U G44C | 0.49
106 | A41U G44U | 0.16
107 | A41U G44A | 0.31
108 | A41G C46A | 0.22
109 | A41G C46U | 0.16
110 | A41G C46G | 0.08
111 | G44U C45G | 0.17
112 | G44U C45A | 0.11
113 | G44U C45U | 0.14
114 | G44U C46A | 0.08
115 | G44U C46U | 0.12

Row | Variant | self-cleavage
116 | G44U C46G | 0.08
117 | A41U | 0.67
118 | A41G | 0.34
119 | A41C | 0.06
120 | U43C G44A | 0.11
121 | U43C G44C | 0.08
122 | U43C G44U | 0.09
123 | A41C C42A | 0.05
124 | A41C C42G | 0.07
125 | A41C C42U | 0.05
126 | A41U C46A | 0.33
127 | A41U C46G | 0.57
128 | A41U C46U | 0.9
129 | C42U C46A | 0.16
130 | C42U C46U | 0.24
131 | C42U C46G | 0.19
132 | C42U C45G | 0.09
133 | C42U C45U | 0.26
134 | C42U C45A | 0.14
135 | U43A G44U | 0.18
136 | U43A G44C | 0.1
137 | U43A G44A | 0.1
138 | U43C C46G | 0.12

Row | Variant | self-cleavage
139 | U43C C46A | 0.11
140 | U43C C46U | 0.1
141 | A41C C46G | 0.07
142 | A41C C46A | 0.05
143 | A41C C46U | 0.04
144 | U43A C45A | 0.08
145 | U43A C45U | 0.16
146 | U43A C45G | 0.08
147 | U43G C46U | 0.28
148 | U43G C46G | 0.32
149 | U43G C46A | 0.18
150 | U43G | 0.12
151 | U43C | 0.14
152 | U43A | 0.11
153 | C42G G44U | 0.06
154 | C42G G44C | 0.06
155 | C42G G44A | 0.12
156 | U43G G44U | 0.25
157 | U43G G44A | 0.37
158 | U43G G44C | 0.32
159 | A41U C45G | 0.23
160 | A41U C45U | 0.55
161 | A41U C45A | 0.19
